pKd: −log10 of the molar value.
Experiments:
[1] = system: T1, Atto550-SERF1a (human), O75920-2; assay: fluorescence anisotropy
T1 sequence: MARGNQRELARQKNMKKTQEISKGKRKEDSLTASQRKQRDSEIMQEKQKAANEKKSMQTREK

MOAG-4 (C. elegans) = assay: fluorescence anisotropy

Row | Substance | pKd [1] | pKd (MOAG-4 (C. elegans))
1 | tRNA (type X-SA) | 5.96 | 
2 | ACUGCUAGAGAUUUUCCACAU [Cy3-R21(-)] |  | 5.32

— article doi:10.1101/713511
